From IntAct's records for PubMed 21822214

B1: B-cell linker protein (Homo sapiens), Q8WV28 (parent)
chain: MDKLNKITVPASQKLRQLQKMVHDIKNNEGGIMNKIKKLKVKAPPSVPRRDYASESPADEEEQWSDDFDSDYENPDEHSDSEMYVMPAEENADDSYEPPPVEQETRPVHPALPFARGEYIDNRSSQRHSPPFSKTLPSKPSWPSEKARLTSTLPALTALQKPQVPPKPKGLLEDEADYVVPVEDNDENYIHPTESSSPPPEKAPMVNRSTKPNSSTPASPPGTASGRNSGAWETKSPPPAAPSPLPRAGKKPTTPLKTTPVASQQNASSVCEEKPIPAERHRGSSHRQEAVQSPVFPPAQKQIHQKPIPLPRFTEGGNPTVDGPLPSFSSNSTISEQEAGVLCKPWYAGACDRKSAEEALHRSNKDGSFLIRKSSGHDSKQPYTLVVFFNKRVYNIPVRFIEATKQYALGRKKNGEEYFGSVAEIIRNHQHSPLVLIDSQNNTKDSTRLKYAVKVS

Variants of: B1
Conditions: with cd2ap_human CD2AP

Variant	effect of a mutation on the interaction
MDKLNKITVPASQKLRQLQKMVHDIKNNEGGIMNKIKKLKVKAPPSVPARDYASESPADEEEQWSDDFDSDYENPDEHSDSEMYVMPAEENADDSYEPPPVEQETRPVHPALPFARGEYIDNRSSQRHSPPFSKTLPSKPSWPSEKARLTSTLPALTALQKPQVPPKPKGLLEDEADYVVPVEDNDENYIHPTESSSPPPEKAPMVNRSTKPNSSTPASPPGTASGRNSGAWETKSPPPAAPSPLPAAGKKPTTPLKTTPVASQQNASSVCEEKPIPAERHRGSSHRQEAVQSPVFPPAQKQIHQKPIPLPAFTEGGNPTVDGPLPSFSSNSTISEQEAGVLCKPWYAGACDRKSAEEALHRSNKDGSFLIRKSSGHDSKQPYTLVVFFNKRVYNIPVRFIEATKQYALGRKKNGEEYFGSVAEIIRNHQHSPLVLIDSQNNTKDSTRLKYAVKVS [R49A;R247A;R312A]	disrupting interaction
